Target: the molecule itself
Assay: SEC

| Protein | binding result |
| --- | --- |
| MBP-Ddn fusion protein, full-length wild-type deazaflavin-dependent nitroreductase (Ddn, Rv3547) fro (enzyme, also called WT MBP-Ddn) MPKSPPRFLNSPLSDFFIKWMSRINTWMYRRNDGEGLGGTFQKIPVALLTTTGRKTGQPRVNPLYFLRDGGRVIVAASKGGAEKNPMWYLNLKANPKVQVQIKKEVLDLTARDATDEERAEYWPQLVTMYPSYQDYQSWTDRTIPIVVCEP | binds |
| Untagged wild-type Ddn (full length), produced by proteolytic removal of MBP (enzyme, also called Untagged Ddn; untagged WT Ddn) MPKSPPRFLNSPLSDFFIKWMSRINTWMYRRNDGEGLGGTFQKIPVALLTTTGRKTGQPRVNPLYFLRDGGRVIVAASKGGAEKNPMWYLNLKANPKVQVQIKKEVLDLTARDATDEERAEYWPQLVTMYPSYQDYQSWTDRTIPIVVCEP | binds |
